This note sets out measurements from PMC11447847.

Read-outs that look alike come from different tables or passages of the source.

In data set [1] the target is T1, TDP43 RRM1 (UniProt Q13148 101-192). The data set can be described thus: CG-MALS.
The target in data set [2] is T1, TDP43 RRM1. The experiment in a line: CG-MALS. This is another data set of the same source.
The target of data set [3] is T2, CELF1 RRM1-2 (UniProt Q92879 1-187). The experiment in a line: EMSA.
The target of data set [4] is T2, CELF1 RRM1-2. The experiment in a line: CG-MALS.

T1 sequence (Q13148 101-192): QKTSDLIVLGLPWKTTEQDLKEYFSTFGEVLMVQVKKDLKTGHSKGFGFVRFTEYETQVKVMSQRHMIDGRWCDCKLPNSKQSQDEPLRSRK
T2 sequence (Q92879 1-187): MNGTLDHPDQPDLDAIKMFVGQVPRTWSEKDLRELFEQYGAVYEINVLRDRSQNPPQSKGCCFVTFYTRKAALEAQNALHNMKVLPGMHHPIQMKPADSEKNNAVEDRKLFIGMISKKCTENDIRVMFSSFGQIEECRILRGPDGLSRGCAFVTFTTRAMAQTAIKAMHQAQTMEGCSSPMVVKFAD

In data set [1], GTGTGTGTGTGTGTGTGTGTGTGT (ssDNA) [(GT)12 ssDNA] registered a Kd of 1340 ± 120 nM.

Molecule TGTGTGTGTGTG (ssDNA) [(TG)6 ssDNA] gave an equilibrium dissociation constant (Kd) in data set [2] of 10.4 ± 3.2 µM.

Consider UGUUUGUUUGUUUGUU (ssRNA) [(UGUU)4 ssRNA], for which the binding result in data set [3] is listed as “binds”.

Consider GUGUGUGUGUGUGUGUGUGUGUGUGUGUGUGUGUGUGUGUGUGU (ssRNA) [(GU)22 ssRNA], for which the Kd in data set [4] turned out to be 390 ± 30 nM.
